According to US20240016931A1 (JIANGSU HENGRUI PHARMACEUTICALS, published 2024):

T1: His-tagged cynomolgus monkey TSLP antigen (cynoTSLP-His) (cynomolgus monkey)
T1 construct: whole entry named
T1 chain: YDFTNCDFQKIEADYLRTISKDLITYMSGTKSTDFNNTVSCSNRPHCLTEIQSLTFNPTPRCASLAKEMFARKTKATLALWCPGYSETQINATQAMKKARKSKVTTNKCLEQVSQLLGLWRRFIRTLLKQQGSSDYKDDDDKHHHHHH


Legend:
[1] = target: T2, His-tagged human TSLP antigen (huTSLP-his) (human); test: ELISA, coated huTSLP-his;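 further: binding of antibodies to plate-bound TSLP read as absorbance at 450 nm after TMB colour development, EC50 derived from binding curves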
T2 construct: Secreted from HEK293E and purified on nickel; whole entry named; also called Human TSLP-his

[2] = target: T1, His-tagged cynomolgus monkey TSLP …; test: Biacore T200, antibody captured on Protein A chip, antigen in flow, 1:1 Langmuir
[3] = target: T2, His-tagged human TSLP antigen …; test: as above
[4] = target: T3, Fc-tagged human TSLP antigen (huTSLP-Fc) (human, biotin-labeled in the blocking assays); test: competition ELISA: plate coated with human-TSLPR-Fc-ECD, biotin-labeled huTSLP-Fc premixed with the antibody dilution series, streptavidin-peroxidase detection, OD450; blocked ligand-receptor pair is TSLP and TSLPR
T3 construct: whole entry named; also called recombinant human TSLP-Fc

[5] = target: T2, His-tagged human TSLP antigen …; test: Biacore (SPR)
[6] = target: T3, Fc-tagged human TSLP antigen (huTSLP-Fc); test: competition FACS: biotin-TSLP-Fc binding to CHOK1-TSLPR/IL-7R cells
[7] = target: T3, Fc-tagged human TSLP antigen (huTSLP-Fc); test: cell-based or functional assay
[8] = target: T2, His-tagged human TSLP antigen …; test: ELISA on human TSLP
native TSLP [9] = target: T4, native TSLP (human, UniProt Q969D9 29-159); test: cell-based or functional assay
[10] = target: T3, Fc-tagged human TSLP antigen (huTSLP-Fc); test: competition ELISA: biotin-huTSLP-Fc binding to coated human-TSLPR-Fc-ECD
native TSLP [11] = target: T4, native TSLP; test: cell-based or functional assay; remark: listed apart in the source
[12] = target: T3, Fc-tagged human TSLP antigen (huTSLP-Fc); test: competition ELISA: blocks TSLP binding to TSLP receptor

Binder	EC50 [1] [nM]	Kd [2] [nM]	Kd [3] [nM]	IC50 (read off the curve) [4] [nM]	Kd [5] [nM]	IC50 [6] [nM]	IC50 (nM), inhibition of TSLP-induced proliferation of BaF3 cells overexpressing TSLPR/IL-7R [7] [nM]	binding result [8]	IC50 (nM), inhibition of native TSLP-induced proliferation of BaF3-TLSPR/IL-7R cells (native TSLP [9]) [nM]	IC50 [10] [nM]	activity in inhibiting native TSLP-stimulated proliferation of BaF3, relative to AMG157 (native TSLP [11]) [times]	IC50 [12] [nM]
hu3-11 (antibody, human IgG1, kappa, V domains shown, IgG1-YTE, kappa; also called hu3VH2-H110Y + hu3VL4-N93D) VH: EVQLVQSGAEVKKPGASVKVSCKASGYTFTDDYMNWVRQAPGQRLEWMGIISPYNGGTSYNQKFKGRVTLTVDKSASTAYMELSSLRSEDTAVYYCAREDYDYDGYAMDYWGQGTTVTVSS VL: EIVLTQSPATLSLSPGERATLSCRASSSVSYMHWYQQKPGQAPRPWIYATSNLASGVPARFSGSGSGTSYTLTISRLEPEDFAVYYCQQWSSDRTFGGGTKVEIKR								binds				
hu119-30 (antibody, human IgG1, kappa, V domains shown, IgG1-YTE, kappa; also called hu119VH8 + hu119VL6-N31S) VH: EAQLVQSGAEVKKPGSSVKVSCKASGFTFSTYNMHWVRQAPGQGLEWIGAIYPGNGETSYNQKFKDRATLTVDKSTRTAYMELSSLRSEDTAVYYCAREDDYGEGYFDVWGQGTTVTVSS VL: DIVLTQSPATLSLSPGERATLSCRASESVDSSGLSFMHWYQQKPGQPPRLLLYRASNLGSGIPARFSGSGSGTDFTLTISSLEPEDFAVYYCQQINTDPLTFGQGTKLEIKR		1.95	0.005			0.137	0.43		1.53	0.519		
Ch199 (antibody, human IgG1, kappa, V domains shown, murine variable regions on human IgG1-YTE / kappa; also called Chi 99; chimeric antibody corresponding to mab199) VH: QVQLQQSGPQLVRPGASVKISCKASGYSFTTYWMHWVKQRPGQGLEWIGMIDPSDSETTLIQKFKDKATLTVDKSSSTAYMQLSSPTSEDSAVYYCARTLDGYYDYWGQGTTLTVSS VL: DIQMTQSPASLSASVGETVTITCRASENIYSYLAWYQQKQGKSPQLLVYFAKTLAEGVPSRFSGSVSGTQFSLKINSLQPEDFGSYYCQHHYGTPWTFGGGTKLEIKR	0.516											0.427

Next, values leading:

EC50 [1] [nM]	Kd [2] [nM]	Kd [3] [nM]	IC50 (read off the curve) [4] [nM]	Kd [5] [nM]	IC50 [6] [nM]	IC50 (nM), inhibition of TSLP-induced proliferation of BaF3 cells overexpressing TSLPR/IL-7R [7] [nM]	binding result [8]	IC50 (nM), inhibition of native TSLP-induced proliferation of BaF3-TLSPR/IL-7R cells (native TSLP [9]) [nM]	IC50 [10] [nM]	activity in inhibiting native TSLP-stimulated proliferation of BaF3, relative to AMG157 (native TSLP [11]) [times]	IC50 [12] [nM]	Binder
0.722	0.00922	0.00812	~0.5	0.00812	0.207	0.573						AMG157 (tezepelumab, anti-TSLP antibody) (antibody, human IgG2, lambda, V domains shown, positive control) VH: QMQLVESGGGVVQPGRSLRLSCAASGFTFRTYGMHWVRQAPGKGLEWVAVIWYDGSNKHYADSVKGRFTITRDNSKNTLNLQMNSLRAEDTAVYYCARAPQWELVHEAFDIWGQGTMVTVSS VL: SYVLTQPPSVSVAPGQTARITCGGNNLGSKSVHWYQQKPGQAPVLVVYDDSDRPSWIPERFSGSNSGNTATLTISRGEAGDEADYYCQVWDSSSDHVVFGGGTKLTVLG
0.148	0.34	0.001			0.133	0.444		0.289	0.497			hu3-13 (antibody, human IgG1, kappa, V domains shown, IgG1-YTE, kappa; also called hu3VH2-H110Y + hu3VL6) VH: EVQLVQSGAEVKKPGASVKVSCKASGYTFTDDYMNWVRQAPGQRLEWMGIISPYNGGTSYNQKFKGRVTLTVDKSASTAYMELSSLRSEDTAVYYCAREDYDYDGYAMDYWGQGTTVTVSS VL: EIVLTQSPATLSLSPGERATLSCRASSSVSYMHWYQQKPGQAPRPWIYATSNLASGVPARFSGSGSGTSYTLTISRLEPEDFAVYYCQQSDSGREFGGGTKVEIKR
	0.0304	0.000903		0.000903	0.187	0.409		0.0228	0.504	100		hu179-33 (antibody, human IgG1, kappa, V domains shown, IgG1-YTE, kappa; also called hu179VH3-N55V + hu179VL8-N53E) VH: EVQLVQSGAEVKKPGSSVKVSCKASGYTFSNYLIEWVRQAPGQGLEWIGVIDPGVGDTNYNENFKGRATLTADKSTSTAYIELSSLRSEDTAVYYCAREDNTGTAFDYWGQGTTVTVSS VL: SIVMTQTPLSLSVTPGQPASISCKASQSVSSDVTWYLQKPGQSPQLLIYYVSEHYTGVPDRFSGSGYGTDFTLKISRVEAEDVGVYYCQQHHRFPLTFGQGTKLEIKR
	0.0172	0.0105			0.227	0.477			0.569		0.727	hu199-36 (antibody, human IgG1, kappa, V domains shown, IgG1-YTE, kappa) VH: EVQLVQSGAEVKKPGASVKVSCKASGYTFTTYWMHWVKQAPGQGLEWMGMIDPSDSETTLIQKFKDKVTLTVDKSTSTAYMELSSLRSEDTAVYYCARTLDGYYDYWGQGTTVTVSS VL: DIQMTQSPSSLSASVGDRVTITCRASENIYSYLAWYQQKPGKSPQLLVYFAKTLAEGVPSRFSGSVSGTQFTLTISSLQPEDFATYYCQHHYGTPWTFGGGTKVEIKR
